Columns and labels:
fibrin clots = biological target: T1, fibrin clots (Homo sapiens, UniProt P02671+P02675+P02679); test: Stability of fibrin clots with aprotinin covalently bound through FS-anchors; assay type: biochemical; details: aprotinin EDC-coupled to the FS-anchor, clots kept in PBS at 37° C., after 5 days; compared with His-FGF-2 and pep1 anchors
T1 sequence (P02671 36-866 limits assumed): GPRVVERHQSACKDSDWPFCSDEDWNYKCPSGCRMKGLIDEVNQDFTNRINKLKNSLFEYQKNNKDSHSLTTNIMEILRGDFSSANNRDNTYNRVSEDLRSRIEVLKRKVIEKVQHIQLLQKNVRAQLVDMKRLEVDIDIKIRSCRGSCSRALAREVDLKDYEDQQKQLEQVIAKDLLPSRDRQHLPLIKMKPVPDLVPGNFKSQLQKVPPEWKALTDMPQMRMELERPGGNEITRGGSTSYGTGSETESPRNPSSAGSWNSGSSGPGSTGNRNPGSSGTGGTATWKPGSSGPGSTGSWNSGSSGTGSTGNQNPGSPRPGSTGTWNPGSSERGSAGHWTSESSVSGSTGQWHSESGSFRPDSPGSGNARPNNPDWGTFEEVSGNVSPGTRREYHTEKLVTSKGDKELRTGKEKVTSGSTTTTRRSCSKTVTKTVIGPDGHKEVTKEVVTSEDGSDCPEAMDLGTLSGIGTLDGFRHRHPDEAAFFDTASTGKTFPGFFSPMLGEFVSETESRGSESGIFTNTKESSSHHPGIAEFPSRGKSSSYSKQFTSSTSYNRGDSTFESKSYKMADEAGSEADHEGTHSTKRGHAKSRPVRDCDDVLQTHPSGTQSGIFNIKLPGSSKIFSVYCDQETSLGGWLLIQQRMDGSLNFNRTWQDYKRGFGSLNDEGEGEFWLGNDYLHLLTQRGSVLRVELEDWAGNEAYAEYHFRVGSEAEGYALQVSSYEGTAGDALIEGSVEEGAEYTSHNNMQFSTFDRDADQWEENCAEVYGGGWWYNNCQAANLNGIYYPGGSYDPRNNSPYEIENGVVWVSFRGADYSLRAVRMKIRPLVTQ
T1 sequence (P02675 45-491 limits assumed): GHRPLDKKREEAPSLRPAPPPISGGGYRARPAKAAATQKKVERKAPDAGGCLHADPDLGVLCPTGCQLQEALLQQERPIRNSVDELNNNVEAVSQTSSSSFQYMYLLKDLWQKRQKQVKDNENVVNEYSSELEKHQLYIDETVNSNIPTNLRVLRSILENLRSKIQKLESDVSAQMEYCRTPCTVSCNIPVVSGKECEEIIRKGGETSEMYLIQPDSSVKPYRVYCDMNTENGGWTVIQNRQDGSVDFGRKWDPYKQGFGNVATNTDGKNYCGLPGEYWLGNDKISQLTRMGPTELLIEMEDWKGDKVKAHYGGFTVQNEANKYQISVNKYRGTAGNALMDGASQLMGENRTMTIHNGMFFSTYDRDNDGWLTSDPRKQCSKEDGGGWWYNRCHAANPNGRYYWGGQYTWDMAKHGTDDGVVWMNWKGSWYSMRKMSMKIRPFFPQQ
T1 sequence (P02679 27-453): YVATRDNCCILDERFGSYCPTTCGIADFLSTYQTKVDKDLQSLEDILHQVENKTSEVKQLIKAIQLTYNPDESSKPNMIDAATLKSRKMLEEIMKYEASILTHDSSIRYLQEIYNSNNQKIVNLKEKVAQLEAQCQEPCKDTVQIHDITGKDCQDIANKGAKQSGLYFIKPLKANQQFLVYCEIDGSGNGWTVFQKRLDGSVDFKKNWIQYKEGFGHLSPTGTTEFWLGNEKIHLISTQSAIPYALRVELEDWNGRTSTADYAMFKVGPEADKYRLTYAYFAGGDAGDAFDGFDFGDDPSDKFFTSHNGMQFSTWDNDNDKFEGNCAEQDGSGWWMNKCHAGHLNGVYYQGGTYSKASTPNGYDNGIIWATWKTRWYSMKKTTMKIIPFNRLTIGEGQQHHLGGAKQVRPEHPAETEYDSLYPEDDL
From the text: Aprotinin was successfully covalently bound to one FS-anchor (His-FGF-2, pep1 (68 an), pep3 (37 aa) and pep4 (28 aa)) using a standard protocol for 1-ethyl-3-(3-dimethylaminopropyl)carbodiimide) (EDC) coupling (FIG. 8A). For a positive control recombinant human FGF-2 (ProSpec Tany, Israel) and for a negative control phosphate buffered saline (PBS) were used. Covalently linked to a FS-anchor and purified aprotinin was mixed with fibrinogen and finally with thrombin to form fibrin clots. These fibrin clots were kept in PBS at 37° C. to observe stability and degradation of fibrin.

fibrin = biological target: T2, fibrin (Homo sapiens, UniProt P02671+P02675+P02679); test: Fibrin binding assay by ELISA; details: fibrinogen-coated plate incubated with 10 I.U./ml thrombin, various concentrations
T2 construct: an activity for processing fibrinogen to fibrin, preferably a thrombin preparation; purchased Baxter AG, Vienna (Tisseel fibrinogen and Tisseel thrombin)
T2 sequence (P02671 36-866 limits assumed): T1 sequence (P02671 36-866 limits assumed)
T2 sequence (P02675 45-491 limits assumed): T1 sequence (P02675 45-491 limits assumed)
T2 sequence (P02679 27-453): T1 sequence (P02679 27-453)
Method: A polystyrene 96-well plate (Nunc® Maxisorp EUSA-plates) was coated with 1 mg/ml fibrinogen (Tisseel®, Baxter AG, Vienna) overnight at 4° C. and then blocked with blocking solution (PBS+1% BSA) for 2 hours at room temperature CRT). After washing three times with PBS, purified peptides were added in various dilutions to the plate and incubated for 1 hour at RT. After the three times washing with PBS, a monoclonal anti-His6-peroxidase antibody (Sigma-Aldrich, Vienna), diluted in PBS+0.1% Tween (Sigma-Aldrich, Vienna) was added and incubated for 1 hour at RT. Finally, the plate was washed three times with PBS again and wells were incubated with o-phenylenediaminehydrochlorid substrate. Absorbance was measured at 492 nm and 620 nm. For fibrin binding analysis, the plate was first coated with fibrinogen overnight at 4° C. and then incubated with 10 I.U./ml thrombin (Tisseel, Baxter AG, Vienna) for 30 minutes at 37° C. The following procedure was the same as described above. […] The signals were detected and recorded at the Reichert SR7000 Surface Plasmon Resonance Analytical Instrument (Reichert Analytical, NY, USA). […]

stability of fibrin clots (fibrin clots) | binding affinity to fibrin (fibrin) | Sequence
higher stability | – | EDGRLLASKCVTDECFFFERLESNNYNTYRSRHHHHH (EDGRLLASKCVTDECFFFERLESNNYNTYRSRHHHHH; synthetic peptide pep 3 (37 aa), peptide #3, pep3 with C-terminus 5x HIS-tag) [also expressed recombinantly]
– | little binding affinity | FERLESNNYN TYRSRHHHHH (FERLESNNYNTYRSRHHHHH; synthetic peptide pep 5 (20 aa), peptide #5, pep5 with C-terminus 5x HIS-tag)
higher stability | – | KCVTDECFFFERLESNNYNTYRSRHHHHH (KCVTDECFFFERLESNNYNTYRSRHHHHH; synthetic peptide pep 4 (29 aa), peptide #4, pep4 with C-terminus 5x HIS-tag)

Source: US20120316113A1, “FGF BASED FIBRIN BINDING PEPTIDES” (Baxter Healthcare S.A., priority 2011, published 2012)
